The test system of series [1] is Cortactin (endogenous, immunoprecipitated from PDGF-stimulated cells).
The target in series [2] is CRK (positive control substrate printed on the Human ProtoArray microarray) (UniProt P46108).
Series [3] addresses Shp1 (on Human ProtoArray microarray) (UniProt P29350).

This is an account of results in patent publication US20060141529.

Shp1 (on Human ProtoArray microarray), sequence (P29350 whole entry): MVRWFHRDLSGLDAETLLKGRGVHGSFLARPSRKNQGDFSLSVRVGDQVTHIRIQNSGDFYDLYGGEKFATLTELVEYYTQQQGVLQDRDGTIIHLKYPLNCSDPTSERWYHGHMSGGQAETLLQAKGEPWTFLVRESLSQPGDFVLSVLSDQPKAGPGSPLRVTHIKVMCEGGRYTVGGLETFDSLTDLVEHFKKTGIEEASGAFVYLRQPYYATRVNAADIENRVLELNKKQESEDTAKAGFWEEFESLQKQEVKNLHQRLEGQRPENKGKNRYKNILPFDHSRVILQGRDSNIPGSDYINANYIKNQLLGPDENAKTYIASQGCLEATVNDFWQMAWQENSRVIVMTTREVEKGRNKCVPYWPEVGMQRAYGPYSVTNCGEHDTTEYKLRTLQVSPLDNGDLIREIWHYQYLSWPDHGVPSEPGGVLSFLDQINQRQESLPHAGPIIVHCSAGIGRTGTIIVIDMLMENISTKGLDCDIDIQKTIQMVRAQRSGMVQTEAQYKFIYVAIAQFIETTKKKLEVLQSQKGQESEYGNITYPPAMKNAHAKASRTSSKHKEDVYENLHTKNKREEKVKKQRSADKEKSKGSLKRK
CRK (positive control substrate printed on the Human ProtoArray microarray), sequence (P46108 whole entry): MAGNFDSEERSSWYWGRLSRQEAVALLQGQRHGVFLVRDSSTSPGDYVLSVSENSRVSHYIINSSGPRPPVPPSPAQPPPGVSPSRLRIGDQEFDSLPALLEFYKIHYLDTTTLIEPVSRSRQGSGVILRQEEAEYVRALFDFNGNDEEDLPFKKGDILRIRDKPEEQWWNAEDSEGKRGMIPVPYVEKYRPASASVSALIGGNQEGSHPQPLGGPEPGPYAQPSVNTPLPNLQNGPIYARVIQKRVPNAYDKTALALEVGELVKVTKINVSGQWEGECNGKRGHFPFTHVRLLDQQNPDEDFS

“ABL (endogenous, in wild-type cell line)”: in series [1], the “PDGF-stimulated tyrosine phosphorylation of Cortactin (immunoprecipitation and anti-phosphotyrosine immunoblot)” value was “PDGF stimulates phosphorylation of Cortactin 3-fold in wild type cells but not in abl-/-, arg-/-, and abl-/-arg-/-”.
The same measure, in the same setting: under “ARG (endogenous, in wild-type cell line)” stands “PDGF stimulates phosphorylation of Cortactin 3-fold in wild type cells but not in abl-/-, arg-/-, and abl-/-arg-/-”.
As to “ARG kinase (protein tyrosine kinase ARG used to probe the Human ProtoArray microarrays)”, the “phosphorylation on Human ProtoArray microarray (radiolabeled ATP)” value in series [2] is reported as “This kinase phosphorylated the control substrate CRK in every subarray”. In series [3], the “phosphorylation on Human ProtoArray microarray” value is listed as “one of the proteins proven to be a substrate for ARG on a Human ProtoArray microarray, Shp1”.
